Substitutions are numbered along the chain they refer to. Names and notes keep the numbering of the source.
T1: RL peptide (Octet assay of PS621 variants)
T1 construct: RXKLDEESILKQK with X = L
T1 peptide: RLKLDEESILKQK

T2: HA peptide (Octet assay of PS621 variants)
T2 construct: XAKLDEESILKQK with X = H
T2 peptide: HAKLDEESILKQK

T3: KA peptide (Octet assay of PS621 variants)
T3 construct: XAKLDEESILKQK with X = K
T3 peptide: KAKLDEESILKQK

B1: PS1106 (designed binder)
chain: MHSKFSHAGRICGAKFKVGEPIYRCKECSFDDTCVLCVNCFNPKDHTGHHVYVTICTEFNNGICDCGDKEAWNHTLFCKAEEG
notes: Variant of PS621
B2: PS1122 (designed binder)
chain: B1 chain with T47L, V53T, I63E, E70T
notes: Variant of PS621 (T47L, I63E, E70T)
B3: PS1111 (designed binder)
chain: B1 chain with V53T, E70S
notes: Variant of PS621
B4: PS1117 (designed binder)
chain: B1 chain with T47L, V53T
notes: Variant of PS621
B5: PS1112 (designed binder)
chain: B1 chain with V53T, E70T
notes: Variant of PS621
B6: PS1121 (designed binder)
chain: B1 chain with T47K, V53T
notes: Variant of PS621
B7: PS1110 (designed binder)
chain: B1 chain with V53T, I63E
notes: Variant of PS621
B8: PS1114 (designed binder)
chain: B1 chain with T47R, V53T, F59R
notes: Variant of PS621
B9: PS1108 (designed binder)
chain: B1 chain with V53T, F59R
notes: Variant of PS621
B10: PS1116 (designed binder)
chain: B1 chain with G48Y, V53T
notes: Variant of PS621
B11: PS1109 (designed binder)
chain: B1 chain with V53T, N61K
notes: Variant of PS621
B12: PS1113 (designed binder)
chain: B1 chain with V53T, H74K
notes: Variant of PS621
B13: PS557 (other)
chain: MPTAASATESAIEDTPAPARPEVDGRTKPKRQPRYHVVLWNDDDHTYQYVVVMLQSLFGHPPERGYRLAKEVDTQGRVIVLTTTREHAELKRDQIHAFGYDRLLARSKGSMKASIEAEE
notes: Natural parent ClpS protein, expressed in E. coli and purified; also called WT; wild-type protein
B14: PS797 (designed binder)
chain: B13 chain with N41D, V72M, Q75L
notes: Variant of PS557; also called N41D, V72M, Q75L
B15: PS838 (designed binder)
chain: B13 chain with N41D, P62R, V72M
notes: Variant of PS557; also called V72M, N41D, P62R
B16: PS796 (designed binder)
chain: B13 chain with N41D, V72M
notes: also called N41D, V72M
B17: PS852 (designed binder)
chain: B13 chain with R31H, N41D, Q55R, V72M
notes: Variant of PS557
B18: PS819 (designed binder)
chain: B13 chain with N41D, E63K, V72M
notes: Variant of PS557; also called V72M, N41D, E63K
B19: PS798 (designed binder)
chain: B13 chain with V72M, Q75L
notes: Variant of PS557; also called V72M, Q75L
B20: PS808 (designed binder)
chain: B13 chain with Q55R
notes: Variant of PS557; also called Q55R
B21: PS830 (designed binder)
chain: B13 chain with N41D, P62R, E63K, V72M, Q75L
notes: Variant of PS557
B22: PS847 (designed binder)
chain: B13 chain with N41D, Q55R, V72M
notes: Variant of PS557
B23: PS824 (designed binder)
chain: B13 chain with I12F, N41D, Q55R, V72M
notes: Variant of PS557
B24: PS801/PS814 (designed binder)
chain: B13 chain with E63K
notes: also called E63K
B25: PS828 (designed binder)
chain: B13 chain with N41D, P62R, Q75L
notes: Variant of PS557
B26: PS831 (designed binder)
chain: B13 chain with P62R, E63K, V72M, Q75L
notes: Variant of PS557
B27: PS809 (designed binder)
chain: B13 chain with V72M
notes: Variant of PS557; also called V72M

Each binder was assayed against T4, RA peptide (Octet assay of PS621 variants) (assay: Octet (BLI), 30 C).
T4 construct: X… with X = R
Description: (§1) Peptides of the sequence RXKLDEESILKQK (SEQ ID NO: 1076) were also used to evaluate the penultimate residue effect.

| Octet response | Binder |
| --- | --- |
| 7.6 | B1 |
| 9.9 | B2 |
| 7.9 | B3 |
| 8.6 | B4 |
| 8.6 | B5 |
| 9.5 | B6 |
| 7 | B7 |
| 9.2 | B8 |
| 8.2 | B9 |
| 7.1 | B10 |
| 8.2 | B11 |
| 7.7 | B12 |

Molecular target: T1, RL peptide (Octet assay of PS621 …)
Experiment: Octet (BLI), 30 C
Description: as §1

| Octet response | Binder |
| --- | --- |
| 9 | B1 |
| 11.2 | B2 |
| 10 | B3 |
| 9 | B4 |
| 9.9 | B5 |
| 10.6 | B6 |
| 9.8 | B7 |
| 9.7 | B8 |
| 10.3 | B9 |
| 8.5 | B10 |
| 10.5 | B11 |
| 9.3 | B12 |

Molecular target: T2, HA peptide (Octet assay of PS621 …)
Experiment: Octet (BLI), 30 C

| Octet response | Binder |
| --- | --- |
| 0.6 | B1 |
| 1.3 | B2 |
| 0.5 | B4 |
| 2.2 | B6 |
| 2.4 | B7 |
| 1.2 | B8 |
| 1.2 | B9 |
| 0.6 | B11 |
| 0.2 | B12 |

Molecular target: T3, KA peptide (Octet assay of PS621 …)
Experiment: Octet (BLI), 30 C

| Octet response | Binder |
| --- | --- |
| 4.7 | B1 |
| 4.6 | B2 |
| 2.7 | B3 |
| 3.5 | B4 |
| 2.3 | B5 |
| 5.4 | B6 |
| 6.6 | B7 |
| 5.3 | B8 |
| 5 | B9 |
| 1.2 | B10 |
| 4.7 | B11 |
| 3.8 | B12 |

The binders below were run against T5, AA peptide (assay: BLI (Octet), peptide on sensor, purified protein in solution).
T5 construct: The peptide was coated on the Octet sensor; also called peptide with N-terminal alanine and penultimate alanine
Description: (§2) In the high-throughput assay, Octet sensors are coated with the peptide of interest and dipped in buffer containing the purified protein. An approximation of relative binding can be obtained by comparing the response after 200 seconds for each protein. Each protein has approximately the same molecular mass and is used at the same concentration, so ranking the proteins by response level in this assay gives an approximation of which proteins have improved binding. Studying the on and off-rate can also give insight into the mechanism of binding.

| Octet response after 200 sec association [nm] | Binder |
| --- | --- |
| 0.01 | B13 |
| 3.2 | B14 |
| 3 | B15 |
| 3.5 | B16 |
| 1.7 | B17 |
| 0.519 | B18 |
| 3.8 | B19 |
| 0.0027 | B20 |
| 0.215 | B21 |
| 0.288 | B22 |
| 3.9 | B23 |
| 0.0017 | B24 |
| 0.469 | B25 |
| 1.4 | B26 |
| 0.0226 | B27 |

Each binder was assayed against T6, VA peptide in the same assay as above.
T6 construct: The peptide was coated on the Octet sensor; also called peptide with N-terminal valine and penultimate alanine
Description: as §2

| Octet response after 200 sec association [nm] | Binder |
| --- | --- |
| 5.9 | B13 |
| 11.2 | B14 |
| 11.6 | B15 |
| 11.3 | B16 |
| 8.3 | B17 |
| 7.42 | B18 |
| 12.9 | B19 |
| 5.71 | B20 |
| 6.64 | B21 |
| 6.68 | B22 |
| 13.3 | B23 |
| 5.73 | B24 |
| 3.24 | B25 |
| 11 | B26 |
| 7.77 | B27 |

These binders were tested against T7, LA peptide in the same assay as above.
T7 construct: The peptide was coated on the Octet sensor; also called peptide with N-terminal leucine and penultimate alanine
Description: as §2

| Octet response after 200 sec association [nm] | Binder |
| --- | --- |
| 9.8 | B13 |
| 12 | B14 |
| 13.4 | B15 |
| 11.9 | B16 |
| 9.7 | B17 |
| 11.1 | B18 |
| 13.9 | B19 |
| 10.4 | B20 |
| 8.54 | B21 |
| 9.92 | B22 |
| 13.8 | B23 |
| 10.7 | B24 |
| 7.75 | B25 |
| 12.2 | B26 |
| 10.8 | B27 |
